From the supplement of paper PMC12042874
± gives the uncertainty stated by the source.

Experiment: amyloid nucleation score (Sup35N fusion, yeast selection) (log enrichment); library NNK2; higher = more nucleation; inactive = no reads after selection
How it was run: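 Psi-negative yeast expressed Sup35N fused to peptides of 20 random codons. They were induced 24 hours with 100 μM copper sulfate, grown 7 days at 30°C without adenine and uracil, and their plasmid inserts from input and output were Illumina-sequenced. The nucleation score is the DiMSum log enrichment of output over input reads, centred on the mode score of non-aggregating sequences. Sequences with under 100 input reads were excluded.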

Row | Substance | amyloid nucleation score
1 | FFCFFKIYFWMRAAGTSLNR | -0.861 ± 1
2 | YFKYNVYIT | 1.3 ± 0.23
3 | NVRDYRIFDL | -0.877 ± 0.78
4 | LCIFYNWRCV | 6.76 ± 0.024
5 | HFPHGHDFVFTVCYDTHSCL | 0.729 ± 0.15
6 | AWWRGPSFFNPSWKCMNDSS | -0.84 ± 0.54
7 | FSVRRLVDHFSNSMEDPHLP | -0.342 ± 1
8 | VTLNTVDFPTGICKSSGARW | -0.236 ± 0.42
9 | VHLTGSCHPNYSGVGKCMVI | 0.168 ± 0.49
10 | DWPRLLNFWRY | -0.284 ± 1.1
11 | RGVLVEFYGAMENISWSTYW | -0.497 ± 0.76
12 | SCLSGFTIWQVSLRYCASFG | 0.312 ± 0.38
13 | RMNYTTEIGHSGFSGNIWTG | -0.45 ± 0.78
14 | PGRLKCGNSRYFWYFDMRHV | inactive
15 | VSYTHTETTPGLTSLWLVLM | 6.89 ± 0.077
16 | CSSSVNCMFITC | 7.87 ± 0.047
17 | IVYYG | 0.801 ± 0.38
18 | MGSGYSQCAGRGWARVERLG | 1.44 ± 0.3
19 | GSCSEHTKLLI | -0.455 ± 0.37
20 | SNCFNCYLISNWKYVTVSLS | 6.23 ± 0.067
21 | NQLDTNSIMLVFLSNMMLGV | 3.81 ± 0.056
22 | GRVKTYTVGFVNIIHFSWLG | 3.57 ± 0.053
23 | FCSGLYHVYAD | 2.28 ± 0.15
24 | ISIYIITVILFLVDALYMLR | -0.809 ± 1.1
25 | KCGSSVVYFIVYQRKLKWGW | 0.961 ± 0.81
26 | WSTASSVLIICIQRFF | inactive

Row | Substance | amyloid nucleation score
27 | TMLTFG | -0.913 ± 0.76
28 | FRRRRIFYYITEHVLLCMLK | -0.5 ± 0.64
29 | DNDYIYRYPWP | -0.288 ± 1.1
30 | LADSAYTPY | -0.727 ± 0.54
31 | FLSVEENGLTDVTVMGWFV | 0.19 ± 1.1
32 | SSTHVPLRVFHGEIMWQQIL | -0.291 ± 1.1
33 | SKFYLKRKSDISYIYASPWR | 1.94 ± 0.06
34 | EDIGSVMGVSRAFCWQRAIC | -0.666 ± 0.79
35 | EFRWGFRGVSYLKCTC | 1.2 ± 0.15
36 | NASIQR | 0.564 ± 0.36
37 | FSGIYESPMVLHMV | -1.97 ± 0.62
38 | VGSGRLTWT | 0.917 ± 0.28
39 | RFCSMSLSWNYDSC | 5.5 ± 0.079
40 | YLNGSSTTVSYRCWAMACSN | -0.448 ± 0.76
41 | DVFVDMGMLTPKRCRARRGV | 0.883 ± 0.34
42 | SDIVNMGEVLVLGDSYWREG | -0.449 ± 0.63
43 | LQFLLLE | 3.38 ± 0.047
44 | LNVLKNT | 0.187 ± 0.24
45 | TVLGRGLILWDVGGLSE | -0.906 ± 0.34
46 | YCPDLLHYHL | 0.256 ± 0.21
47 | HLYCRALILLVVLPGYTQLL | -1.07 ± 0.78
48 | KHCMCYLLWNI | -0.422 ± 1.1
49 | LLDACHLGNWTAGNGYYDRV | -0.531 ± 1.1
50 | HSVKCDSLGFLPFSTYWLRI | -0.047 ± 0.79
51 | NFGADVDRFNRVEGSSDFHG | 0.285 ± 0.54
52 | FSKHNSYGTNINNLFFSLLH | 6.19 ± 0.077

Row | Substance | amyloid nucleation score
53 | CCCWRECDNKRSRTLHCEAW | 0.557 ± 0.66
54 | AYSFDKHKNKGLSTASVGHM | 0.894 ± 0.55
55 | PLVLSFFRAIYSYYCNWKTC | -0.649 ± 0.64
56 | WWNTGCVGLMCICTLFSGSR | 8.985 ± 0.081
57 | DRIGIRYWG | 1.34 ± 0.14
58 | SGLGGGFFSIVCYTHISVRE | -0.069 ± 0.55
59 | LHYTYVSDCVCRMDTLLFGL | -0.278 ± 0.45
60 | LEVKARFP | -0.471 ± 0.45
61 | HKEEV | 0.163 ± 0.53
62 | TKRAIDWA | 0.669 ± 0.8
63 | CNMIYNDKSLPKW | -0.26 ± 0.32
64 | SEYVDFYGFLGLVFTLRRSA | 0.43 ± 0.64
65 | IMNMCISDKFSIVVSSYVRY | 0.958 ± 0.36
66 | VDTELKVNSYRPGWTEHSRT | 0.738 ± 0.21
67 | HKLCGYIYIRVIRSWKWYKQ | -0.306 ± 0.63
68 | IAITDFVLVSVLHSKWCIF | -0.246 ± 0.5
69 | MCVCCYSIRGLVTGWLWLMA | 4 ± 0.061
70 | RTRTYL | inactive
71 | VWRPRTFLLIHYVVKDKRTP | -0.507 ± 0.79
72 | MNVGTFSLRFLSFDLL | -0.054 ± 1.1
73 | MARTISAGSVLFNLGSRIWH | inactive
74 | GTTCGSSCRVVSLMKENVGA | -0.367 ± 0.48
75 | VFRFNFLRGLKIQVLSRFGW | -0.067 ± 1.1
76 | RSVKDTPCLKLVLMKRDTLK | 0.092 ± 0.54
77 | LVTKSAGLKGGLMRGDRSRK | 0.585 ± 0.37
78 | IYEQPG | 0.012 ± 0.54

Row | Substance | amyloid nucleation score
79 | IKCLYV | -0.127 ± 1
80 | SRITCKDVMLL | -0.654 ± 0.49
81 | WHQVRPARV | 1.17 ± 0.3
82 | SAFLRIINACTATFHENSAR | inactive
83 | LRGGTLVDNNLSANNYVYEI | -0.967 ± 0.76
84 | RTSRVVIKILDPFQFVMLFI | -0.211 ± 0.49
85 | ICIFSSCERSMGHRRC | 0.141 ± 0.38
86 | GCDTRHSPLVSNALGLAIAS | -0.052 ± 0.49
87 | FSRTSPIRQMIWKFLDCQPA | -0.978 ± 0.41
88 | STCLQD | -0.966 ± 1.1
89 | WRDSVDTGISSGKVGGRCSE | -0.047 ± 0.27
90 | VVTLDRGLGHNRKGIQLGFR | 0.547 ± 0.81
91 | GGTPRSINVF | 0.201 ± 0.8
92 | VSGDRLPSLFTCVRLLI | 0.492 ± 0.41
93 | TEGRVDPLCDERAILMVFDV | 0.768 ± 0.5
94 | VSNCLQGLYFCWSTGSRSRI | 6.796 ± 0.03
95 | SCTDLLYDIDCIHSHECLLL | -0.397 ± 0.35
96 | LVLLSFGSV | -0.127 ± 1
97 | DFRCADCLKINFSIVQSK | 7.257 ± 0.05
98 | WSPLSLVTIELLVQSVIDPF | -0.351 ± 0.48
99 | KCVVRAVA | 2.23 ± 0.24
100 | YLLPSVTSVTY | 0.993 ± 0.29
101 | YLQYPYCSSKSFARDDLVKY | 0.173 ± 0.79
102 | IPYLDYMTMH | 0.082 ± 0.22
103 | YRCLYGRKYVFRIEPIGIVH | -0.676 ± 0.35
104 | LSTLLFRIYGLPS | -2.12 ± 0.49

Row | Substance | amyloid nucleation score
105 | NNRSGYEYVIEFRLTSAVHF | 2.1 ± 0.13
106 | MGFRGIHMRVCAFLRWYNNY | -0.709 ± 0.33
107 | GSYKSGSSSA | 2.57 ± 0.1
108 | EVLRKQIVRTRAVQVHFCLT | 1.15 ± 0.15
109 | VRRYYDSKSSIAYMLSIRVD | -0.447 ± 0.27
110 | GTSHWWIGMRFSEADLLLDW | 0.656 ± 0.41
111 | LPILCTWLM | -0.347 ± 0.55
112 | FGHNGRICKRLMEVPIFERA | -0.655 ± 0.32
113 | SLLGRRIFWLCHEFMSSSLV | 0.21 ± 1
114 | YSQGDGL | -0.038 ± 0.65
115 | CMLCARLHH | 4.13 ± 0.056
116 | LLFLVCTSFNLDIQWNFALG | 4.76 ± 0.087
117 | KHSDSTGARQWGNNVYKLDD | 0.366 ± 0.2
118 | GVREYMH | 0.544 ± 0.28
119 | LYLIRRHESCCLPNIR | 0.039 ± 0.46
120 | RKVVRLSHFLMCDCSRKPRR | -0.072 ± 0.76
121 | KCVSRISSGR | 1.03 ± 0.66
122 | VLSMVVDKCLCTMCIQAIVL | 9.711 ± 0.058
123 | TCSRDVFGWTVLGTGLPPLR | 0.878 ± 0.32
124 | YVMTFYTFTTIGGPGPWYGL | inactive
125 | IYCHPLRYVLFIVSYRVSSA | 0.259 ± 0.56
126 | TCVCDIYSSTVVSFLHSNRV | 5.44 ± 0.1
127 | DSCRGMVSFCG | -0.399 ± 0.35
128 | RYNFYRLNLSRAVASDETCV | -0.854 ± 0.34
129 | IFRLELNTIIPPSQYNASAH | 4.57 ± 0.1
